# B1: IMP321: recombinant soluble human LAG-3Ig fusion protein, 160-kDa dimer: extracellular domain of hLAG-3 fused to the human IgG1 Fc (protein)
# chain: LQPGAEVPVVWAQEGAPAQLPCSPTIPLQDLSLLRRAGVTWQHQPDSGPPAAAPGHPLAPGPHPAAPSSWGPRPRRYTVLSVGPGGLRSGRLPLQPRVQLDERGRQRGDFSLWLRPARRADAGEYRAAVHLRDRALSCRLRLRLGQASMTASPPGSLRASDWVILNCSFSRPDRPASVHWFRNRGQGRVPVRESPHHHLAESFLFLPQVSPMDSGPWGCILTYRDGFNVSIMYNLTVLGLEPPTPLTVYAGAGSRVGLPCRLPAGVGTRSFLTAKWTPPGGGPDLLVTGDNGDFTLRLEDVSQAQAGTYTCHIHLQEQQLNATVTLAIITVTPKSFGSPGSLGKLLCEVTPVSGQERFVWSSLDTPSQRSFSGPWLEAQEAQLLSQPWQCQLYQGERLLGAAVYFTELSSPG
# modifications: left off: small tags and cut ends; a dimerising Fc or GST
# notes: recombinant soluble human LAG-3Ig fusion protein, 160-kDa dimer: extracellular domain of hLAG-3 fused to the human IgG1 Fc
# How the values were obtained:
# Type in all cases: in vivo, human
# [1] = AIPAC: quality of life (QoL); conditions: at week 25
# Description: (§1) Secondary Outcome Measures: • 1. […] Assessment of the overall survival (OS) • 3. […] Evaluation of the time to next treatment • 6. Evaluation of objective response rate (ORR) • 7. Evaluation of stable disease
# [2] = Pharmacokinetics of s.c. IMP321 in metastatic renal cell cancer patients
# [3] = tested on: HER2 negative hormone receptor-positive metastatic breast cancer; assay: AIPAC Phase IIb study: progression-free survival (PFS); conditions: investigator read; for PFS absolute gain / PFS Hazard Ratio: vs paclitaxel + placebo
# Description: (§2) A Phase IIb clinical study was carried out to investigate the safety and efficacy of the active immunotherapy IMP321 in combination (adjunctive) with paclitaxel chemotherapy in patients with HER2 negative hormone receptor-positive metastatic breast cancer.
# (§3) A multicentre, placebo-controlled, double-blind, 1:1 randomised Phase IIb study in female HER2 negative hormone receptor-positive metastatic breast cancer patients was conducted. The study comprised two stages: • stage 1 which was an open-label, safety run-in stage consisting of cohorts 1 and 2 to confirm the recommended Phase II dose (RPTD) of IMP321 in combination with paclitaxel; and • stage 2 which was a placebo-controlled, double-blind randomisation stage, paclitaxel+IMP321 at the RPTD compared to paclitaxel+placebo.
# (§4) Paclitaxel+IMP321 at the RPTD of 30 mg (114 patients):
# (§5) The chemo-immunotherapy phase consisted of 6 cycles of 4 weeks. Patients received weekly paclitaxel at Days 1, 8 and 15 with adjunctive treatment of study agent (IMP321) on Days 2 and 16 of each 4-week cycle. After completion of the 6-cycle chemo-immunotherapy phase, responding or stable patients received study agent (IMP321) every 4 weeks during the maintenance phase for an additional period of up to 12 injections.
# (§6) Active Comparator: Paclitaxel+Placebo (112 patients):
# as §5, with “(placebo)” for “(IMP321)”
# Primary Outcome Measures: • 1. Stage 1 to determine the recommended phase two dose (RPTD) for the randomised phase • 2. Assessment of Progression-Free Survival (PFS)
# [4] = tested on: HER2 negative hormone receptor-positive metastatic breast cancer; assay: AIPAC Phase IIb study: best overall response acc. to RECIST 1.1 by BICR (ORR, DCR); conditions: entire patient population
# Description: as §2, §3, §4, §5, §6
# The chemo-immunotherapy phase consisted of 6 cycles of 4 weeks. […]
# [5] = Safety of s.c. IMP321 doses
# [6] = tested on: HER2 negative hormone receptor-positive metastatic breast cancer; assay: AIPAC Phase IIb study: overall survival (OS)
# Description: as §2, §3, §4, §5, §6
# as §5, with “(placebo)” for “(IMP321)”
# as §1
molecule,measurement,setting,value
B1,deterioration in Quality of Life (QoL),[1],not observed
same,systemic exposure,"[2]; doses of 6-30 mg per s.c. injection, metastatic renal cell cancer patients",acceptable systemic exposure
same,blood concentration of IMP321,"[2]; for at least 24 hours after s.c. injection, doses of more than 6 mg",> 1 ng/mL
same,PFS median,[3]; Luminal B type,7.2 months
same,PFS absolute gain,[3]; Luminal B type,+1.7 months
same,Median PFS,[3]; age < 65 years,7.2 months
same,PFS absolute gain,[3]; age < 65 years,+1.7 months
same,PFS median,[3]; low (<0.25 × 10^9/L) monocytes at baseline,7.5 months
same,PFS absolute gain,[3]; low monocytes at baseline,+2.3 months
same,Median PFS,[3]; with prior CDK4/6 therapy,5.6 months
same,PFS Hazard Ratio,[3]; with prior CDK4/6 therapy,HR 1.02
same,PFS absolute gain,[3]; with prior CDK4/6 therapy,−1.1 months
same,Median PFS,[3]; without prior taxane therapy,7.2 months
same,PFS Hazard Ratio,[3]; without prior taxane therapy,HR 0.88
same,PFS absolute gain,[3]; without prior taxane therapy,+1.7 months
same,Progressive disease,[4],fewer patients with immediate progression
same,safety,[5]; doses of 6-30 mg per s.c. injection,safe
same,dose limiting toxicity,[5]; to date,No dose limiting toxicity has been observed
same,Median OS,"[6]; Luminal B type, investigator read",16.3 months
same,OS absolute gain,"[6]; Luminal B type, investigator read, vs paclitaxel + placebo",+3.8 months
same,Median OS,"[6]; age < 65 years, investigator read",21.9 months
same,OS absolute gain,"[6]; age < 65 years, investigator read, vs paclitaxel + placebo",+7.1 months
same,OS Hazard Ratio [95% CI],"[6]; entire patient population, investigator read, vs paclitaxel + placebo",0.83
same,gain in median OS,"[6]; entire patient population, vs paclitaxel + placebo",2.7 months
same,Median OS,"[6]; low (<0.25 × 10^9/L) monocytes at baseline, investigator read",22.4 months
same,OS absolute gain,"[6]; low monocytes at baseline, investigator read, vs paclitaxel + placebo",+9.4 months
same,Median OS,"[6]; with prior CDK4/6 therapy, investigator read",20.2 months
same,OS Hazard Ratio,"[6]; with prior CDK4/6 therapy, investigator read, vs paclitaxel + placebo",HR 0.84
same,Median OS,"[6]; without prior taxane therapy, investigator read",21.4 months
same,OS Hazard Ratio,"[6]; without prior taxane therapy, investigator read, vs paclitaxel + placebo",HR 0.69
